This is an account of results in article PMC2701634.

Holding throughout (experiment): native gel or EMSA; purified p66 on NativePage Novex Bis-Tris gel, then Western blotting with mouse monoclonal anti-RT antibody; in the presence or absence of β-mercaptoethanol
In assay [1] the target is HIV-1 reverse transcriptase p66 subunit, mutant I274A (HIV-1 (pNL4-3-ΔE-EGFP)).
Assay [2] addresses HIV-1 reverse transcriptase p66 subunit, mutant Y271A (HIV-1 (pNL4-3-ΔE-EGFP)).
Assay [3] deals with HIV-1 reverse transcriptase p66 subunit, wild type (HIV-1 (pNL4-3-ΔE-EGFP)).

Several values for one entry are separate records, joined by “and”; a condition that tells them apart may be missing. Identical values can stand only once.

Turning to “HIV-1 reverse transcriptase p66 subunit, mutant I274A (enzyme)”, the stoichiometry N in assay [1] is 4 and 8.

For the substance “HIV-1 reverse transcriptase p66 subunit, mutant Y271A (enzyme)”, the stoichiometry N in assay [2] is 2 and 4.

For the substance “HIV-1 reverse transcriptase p66 subunit, wild type (enzyme)”, the stoichiometry N in assay [3] stood at 2.
